Experimental data from US20140056907A1 (Regeneron, published 2014).

T1: mouse ASIC1a (mouse, UniProt Q6NXK8 1-526)
T1 construct: whole, on cells; Expressed on stably transfected 3T3 cells (3T3/mASIC1a); also called mASIC1a
T1 sequence (looked up): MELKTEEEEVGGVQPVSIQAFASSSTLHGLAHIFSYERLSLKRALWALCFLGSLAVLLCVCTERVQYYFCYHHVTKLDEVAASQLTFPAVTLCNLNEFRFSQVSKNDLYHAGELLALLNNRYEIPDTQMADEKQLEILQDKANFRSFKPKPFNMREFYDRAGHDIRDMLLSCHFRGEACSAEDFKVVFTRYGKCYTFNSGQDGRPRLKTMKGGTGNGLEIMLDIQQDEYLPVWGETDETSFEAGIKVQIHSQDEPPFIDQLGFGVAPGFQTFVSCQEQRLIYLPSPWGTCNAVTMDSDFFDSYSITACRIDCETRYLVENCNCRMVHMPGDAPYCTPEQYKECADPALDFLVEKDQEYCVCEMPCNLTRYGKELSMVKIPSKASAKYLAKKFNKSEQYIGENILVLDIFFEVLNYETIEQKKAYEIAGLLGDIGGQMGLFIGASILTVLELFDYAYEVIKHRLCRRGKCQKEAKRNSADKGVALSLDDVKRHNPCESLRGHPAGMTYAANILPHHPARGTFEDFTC


Molecular target: T1, mouse ASIC1a
Test: FACS, 3T3/mASIC1a cells
From the text: To further characterize anti-ASIC1 antibodies, their ability to bind either (a) a mouse fibroblast 3T3 cell line stably transfected to overexpress full length human ASIC1 (3T3/hASIC1; amino acids 1-528 of NCBI accession number NP_{—}001086.2 [SEQ ID NO:401]), (b) a 3T3 cell line stably transfected to over express full length mouse ASIC1a (3T3/mASIC1a; amino acids 1-526 of NCBI accession number NP_{—}033727), or (c) a ND7 cell line (ECACC, #92090903) that is a fusion cell line of mouse neuroblastoma and rat dorsal root ganglia that endogenously expresses rat ASIC1, was determined using flow cytometry (FACS). ND7 cells were differentiated by replacing the culture media with low-serum media (0.5% FBS) containing 1 mM dibutyryl-cAMP (Cat. No. sc-201567A, Santa Cruz Biotechnology, Inc., Santa Cruz, Calif.). FACS binding was tested for some antibodies on both undifferentiated ND7 cells and differentiated ND7 cells.
To perform the FACS binding experiments, adherent cells were collected using 1 mM EDTA in PBS, then washed, and re-suspended in cold PBS containing 5% FBS. For each binding experiment, each anti-ASIC1 antibody (at final concentrations of 10 nM of purified antibodies or 3.3 nM for antibody supernatants for binding to 3T3/hASIC1 cells and 5 nM for binding to 3T3/mASIC1a or ND7 cells) was added to 250,000 cells in 500 μL of PBS with 5% FBS. After incubation for 20 minutes at room temperature, a secondary antibody which recognizes human Fc (Cat. No. 109-136-098, Jackson ImmunoResearch Laboratories, Inc., West Grove, Pa.) or mouse Fc (Cat. No. 550826, BD Biosciences, San Jose, Calif.) and is conjugated to allophycocyanin, was then added to the cell mixture at a final concentration of 13.3 nM. After incubating for 20 minutes on ice, the cells were washed and resuspended in PBS containing 5% FBS, then sorted and analyzed on a flow cytometer (FACSCalibur, BD Biosciences, San Jose, Calif.) to determine relative binding by the candidate antibodies to the tested cell lines. Histograms of cells stained with anti-ASIC1 antibodies were compared with those of cells stained with secondary antibody alone. Percentage of ASIC1 signal over secondary antibody alone was calculated using FlowJo software (Tree Star, Ashland, Oreg.).

binding result | Binder
binds | H3M7102N (antibody, V domains shown, Chimeric: human variable, mouse constant domains; H3M prefix marks the Fc, isotype not spelled out) VH: EVQLLASGGGLVQPGGSLRLSCAASGFTFSSFAMSWVRQAPGKGLEWVSGISGSGGSTYYADSVKGRFTISRDNSKNTLYLQMNSLRAEDTAAYYCAKEAYKWQPWGQGIRVTVSS VL: DIQMTQSPSTLSASVGDRVSITCRASQSISSWLAWYQQKPGKAPKLLIYKASNLDSGVPSRFSGSGSGTDFTLTISSLQPDDFATYYCQQYNSYSYTFGQGTKLEIK
binds | H3M6726N (antibody, V domains shown, Chimeric: human variable, mouse constant domains; H3M prefix marks the Fc, isotype not spelled out) VH: EVQLLESGGVLVQPGGSLRLSCAASGFNFNNYDMSWVRQAPGKGLEWVSVISASGRNTYYADSVKGRFTISRDNSKISLYLQMNSLRPEDTAVYYCAKDHLVHYYYGMDVWGQGTTVTVSS VL: DIMMTQSPLSLSVTPGEPASISCRSSQSLLHSNGYNYLDWYLQKSGQSPHLLIYLGSNRASGVPDRFSGSGSGTDFTLKISRVEAEDGGVYYCMQALQTPRTFGQGTKVEIK
